Laboratory results from PMC11117730, “A Novel Bifunctional Fusion Protein (Anti-IL-17A-sST2) Protects against Acute Liver Failure, Modulating the TLR4/MyD88 Pathway and NLRP3 Inflammasome Activation” (Biomedicines, 2024).

Target: T1, sST2-Fc (mouse, UniProt P14719 27-332)
T1 construct: mouse ST2L (IL-33 receptor), amino acids 27-332, cloned into a pTT5 vector that contains the human IgG4 Fc domain; also called soluble ST2 Fc fusion
T1 sequence (looked up): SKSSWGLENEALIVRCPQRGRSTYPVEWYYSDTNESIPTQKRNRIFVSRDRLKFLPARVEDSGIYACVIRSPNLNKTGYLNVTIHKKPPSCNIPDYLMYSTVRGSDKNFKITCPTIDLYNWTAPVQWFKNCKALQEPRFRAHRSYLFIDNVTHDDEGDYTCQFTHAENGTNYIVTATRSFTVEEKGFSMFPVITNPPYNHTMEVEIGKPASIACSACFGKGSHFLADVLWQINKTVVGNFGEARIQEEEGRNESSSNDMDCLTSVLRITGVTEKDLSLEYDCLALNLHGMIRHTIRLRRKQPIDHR
Test: SPR; Biacore T200; antigen (mouse IL-33) immobilised on CM5 by amine coupling; proteins flowed in a 2-fold dilution series for 120 s, dissociation 480 s
Conditions: both partners purified

Kd: 0.174 nM
B1: mouse IL-33 (ligand)
chain: SIQGTSLLTQSPASLSTYNDQSVSFVLENGCYVINVDDSGKDQEQDQVLLRYYESPCPASQSGDGVDGKKLMVNMSPIKDTDIWLHANDKDYSVELQRGDVSPPEQAFFVLHKKSSDFVSFECKNLPGTYIGVKDNQLALVEEKDESCNNIMFKLSKI
